Numbering of substitutions follows the chain as printed. Names and notes keep the numbering of the source.
B1: endogenous DPP-IV purified from human semen (sDPP-IV) (protein)
chain: SRKTYTLTDYLKNTYRLKLYSLRWISDHEYLYKQENNILVFNAEYGNSSVFLENSTFDEFGHSINDYSISPDGQFILLEYNYVKQWRHSYTASYDIYDLNKRQLITEERIPNNTQWVTWSPVGHKLAYVWNNDIYVKIEPNLPSYRITWTGKEDIIYNGITDWVYEEEVFSAYSALWWSPNGTFLAYAQFNDTEVPLIEYSFYSDESLQYPKTVRVPYPKAGAVNPTVKFFVVNTDSLSSVTNATSIQITAPASMLIGDHYLCDVTWATQERISLQWLRRIQNYSVMDICDYDESSGRWNCLVARQHIEMSTTGWVGRFRPSEPHFTLDGNSFYKIISNEEGYRHICYFQIDKKDCTFITKGTWEVIGIEALTSDYLYYISNEYKGMPGGRNLYKIQLSDYTKVTCLSCELNPERCQYYSVSFSKEAKYYQLRCSGPGLPLYTLHSSVNDKGLRVLEDNSALDKMLQNVQMPSKKLDFIILNETKFWYQMILPPHFDKSKKYPLLLDVYAGPCSQKADTVFRLNWATYLASTENIIVASFDGRGSGYQGDKIMHAINRRLGTFEVEDQIEAARQFSKMGFVDNKRIAIWGWSYGGYVTSMVLGSGSGVFKCGIAVAPVSRWEYYDSVYTERYMGLPTPEDNLDHYRNSTVMSRAENFKQVEYLLIHGTADDNVHFQQSAQISKALVDVGVDFQAMWYTDEDHGIASSTAHQHIYTHMSHFIKQCFSLP
B2: recombinant wild-type human DPP-IV (rDPP-IV), amino acids 39 to 766, secreted from baculovirus-infected Hi5 insect cells (protein)
chain: B1 chain
B3: DPP-IV H750A mutant (protein)
chain: B1 chain with H712A

What follows are proteins tested against P27487.

| Protein | specific activity after serial dilution (H-Gly-Pro-pNA hydrolysis) |
| --- | --- |
| B1 | no decrease in specific activity were observed for either sDPP-IV or rDPP-IV even at a concentration as low as 1.6 nM |
| B2 | no decrease in specific activity were observed for either sDPP-IV or rDPP-IV even at a concentration as low as 1.6 nM |
| B3 | the specific activity of H750A protein was also constant over the range of 200 nM to 1.6 nM |
